Test results as given in article PMC2945607 (Molecular cell, 2010).

Biological target: T1, recombinant Caulobacter FtsZ (Caulobacter crescentus, UniProt B8H080 1-508)
T1 sequence (looked up): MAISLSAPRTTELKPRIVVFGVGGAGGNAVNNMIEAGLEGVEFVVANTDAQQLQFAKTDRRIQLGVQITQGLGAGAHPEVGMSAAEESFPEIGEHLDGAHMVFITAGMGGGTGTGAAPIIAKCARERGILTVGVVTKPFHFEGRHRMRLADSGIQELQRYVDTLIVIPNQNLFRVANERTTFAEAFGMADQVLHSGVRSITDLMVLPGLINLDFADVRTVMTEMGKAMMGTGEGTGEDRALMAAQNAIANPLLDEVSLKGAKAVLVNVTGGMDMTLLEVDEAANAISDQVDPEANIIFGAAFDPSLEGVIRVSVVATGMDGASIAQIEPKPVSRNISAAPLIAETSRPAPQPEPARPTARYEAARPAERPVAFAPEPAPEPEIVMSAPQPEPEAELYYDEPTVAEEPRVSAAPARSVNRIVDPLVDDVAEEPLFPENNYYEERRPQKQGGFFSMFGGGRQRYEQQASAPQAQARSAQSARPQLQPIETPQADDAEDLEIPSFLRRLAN
Experiment: right angle light scattering

B1: His6-FzlA (natural protein, Caulobacter crescentus, UniProt Q9A2C6 1-228, looked up)
chain: MSVERTLHHFPLDPASRQVRLALGEKRLPFVEMQVRYWEMPPEFTSLNPSGMPPVLVETKHQRNLVICETRAILEHIEETETEPPLLGRDPAERAEARRLLQWFDRKFDNEVNGFLLHEKMEKRLLRMGAPDLAALRQGREALRMHLGYIESLLQTRDWLAGRRMSLADFAAAAHLSVIDYFGDVPWKDFQAAKTWYMKLKSRPCFRPILADRWPGLAPAAHYDDLDF
- fold increase in light scattering at steady state against FtsZ without FzlA: > 10 fold
